Assay results published in EP4259652B1.

Target: monoclonal antibody NBH133A1-2B4
Assay: competitive ELISA: standard peptide competes with coated …-K-Biotin for HRP-labelled antibody

B1: standard peptide … (peptide)
peptide: NLLNLNKDKE
Binder B1 has an IC50 of 0.0117 µg/mL.
